Consider 1 molecule from patent US20260193375A1 (NORMUNITY, published 2026).

As usually defined, the EC50 is the concentration needed to bring the measured effect to its halfway point. A word on the Kd: it is a measure of binding affinity in units of concentration.

Assay [1] deals with T1, recombinant human LY6K (Wuxi) (human, UniProt Q17RY6 18-138).
T1 construct: Limits of the construct not clearly stated; also called Human LY6K (Wuxi LY^KGLY138(1-38TR)_8His)
T1 sequence: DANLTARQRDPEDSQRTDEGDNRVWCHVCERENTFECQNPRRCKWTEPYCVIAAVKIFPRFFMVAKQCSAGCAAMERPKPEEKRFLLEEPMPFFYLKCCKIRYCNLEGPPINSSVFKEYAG
Nature of the assay: capture ELISA (MSD): antibody coated as capture at 2 µg/mL, recombinant human LY6K titrated, sulfo-tagged polyclonal anti-hLY6K (AF6648) for detection; EC50 is the LY6K concentration.

Another assay deals with cyLY6K-mFc (cynomolgus monkey). Put plainly: SPR (Carterra LSA), mAb captured on anti-human IgG-Fc, antigen as analyte.
For a further assay, the target named is T2, hLY6K-his (human, UniProt Q17RY6 18-138, limits assumed).
T2 construct: not shown: his tag
T2 sequence: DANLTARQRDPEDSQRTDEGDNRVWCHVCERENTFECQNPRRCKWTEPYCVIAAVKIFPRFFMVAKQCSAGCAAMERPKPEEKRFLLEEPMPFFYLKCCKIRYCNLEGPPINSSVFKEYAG
The description is as above.

For a further assay, the target named is T3, rLY6K-mFc (rat).
T3 chain: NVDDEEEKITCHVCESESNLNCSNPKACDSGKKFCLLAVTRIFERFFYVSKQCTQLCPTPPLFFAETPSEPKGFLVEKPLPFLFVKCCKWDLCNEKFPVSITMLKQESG
The description is as above.

Another assay addresses T4, hLY6K-mFc (human, UniProt Q17RY6 18-138).
T4 construct: not shown: mFc
T4 sequence: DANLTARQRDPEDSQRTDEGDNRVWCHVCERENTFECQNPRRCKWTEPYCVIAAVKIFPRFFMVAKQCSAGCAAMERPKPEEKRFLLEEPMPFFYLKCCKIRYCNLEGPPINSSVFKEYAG
The assay is described as above.

In assay [2] the target is T1, recombinant human LY6K (Wuxi). Put plainly: ELISA, LY6K coated at 2 ug/mL, HRP-labelled mAb titrated.
In assay [3] the target is T5, cynomolgus monkey LY6K (R&D Systems) (cynomolgus monkey).
T5 construct: also called cyLY6K
Nature of the assay: ELISA, coated antigen, IgG1 at 10 ug/ml. On the technique in general: In an ELISA, binding on a coated surface is turned into a signal by an enzyme label.

The target in a further assay is T6, rat LY6K (R&D Systems) (rat).
T6 construct: also called rLY6K
Put plainly: ELISA, coated antigen, IgG1 at 10 ug/ml.

For the next assay, the target named is T7, Human LY6K (R&D Systems) (human, UniProt Q17RY6 18-138, limits assumed).
T7 construct: Bought from R&D Systems, coated on ELISA plates; also called hLY6K
T7 sequence: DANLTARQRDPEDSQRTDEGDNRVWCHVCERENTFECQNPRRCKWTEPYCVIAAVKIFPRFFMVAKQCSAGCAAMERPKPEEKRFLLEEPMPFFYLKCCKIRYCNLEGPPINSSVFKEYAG
Put plainly: ELISA, coated antigen, IgG1 at 10 ug/ml.

Assay [4] deals with T8, human LY6E (R&D Systems) (human, UniProt Q16553 21-101, limits assumed).
T8 construct: also called hLY6E
T8 sequence (looked up): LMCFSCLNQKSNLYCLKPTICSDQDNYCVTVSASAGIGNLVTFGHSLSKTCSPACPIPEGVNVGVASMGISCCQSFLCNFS
Put plainly: ELISA, coated antigen, IgG1 at 10 ug/ml.

The next assay concerns the target T9, Ly6H.
T9 chain: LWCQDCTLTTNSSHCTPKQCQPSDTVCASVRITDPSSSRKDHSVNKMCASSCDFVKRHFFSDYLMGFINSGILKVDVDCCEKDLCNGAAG
Nature of the assay: ELISA, antigen coated on the plate, antibody as human IgG1, anti-human F(ab)2 HRPO.

The target of assay [5] is T8, human LY6E (R&D Systems). Described as above.
A further assay has as its target T10, Ly6D.
T10 chain: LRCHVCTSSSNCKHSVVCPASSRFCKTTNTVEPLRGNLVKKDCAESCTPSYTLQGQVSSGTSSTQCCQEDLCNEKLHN
The assay is described as above.

B1: anti-LY6K antibody 3082 (antibody, V domains shown)
VH: EVQLVESGGGLVKPGGSLRLSCAASGFTFSSSSMNWVRQAPGKGLEWVSSISRSSYYIYYADSVEGRFTISRDNAKNSLYLQMNSLRAEDTAVYYCAKIGSSSEGVEDYYYYYYMDVWGKGTTVTVSS
VL: DIQMTQSPSSLSASVGDRVTITCRASQNINSYLNWYQQKPGKAPKLLIYAASSLQSGVPSRFSGSGSGTDFTLTISSLQPEDFATYYCHQSYSTPLTFGGGTKVEIK
B1: the EC50 worked out at 0.0958 mg/L in [1] and 4.59 nM in assay [2]. Also, the Kd in the assay with cyLY6K-mFc stood at 0.103 nM; in the assay with hLY6K-his, 2.06 nM; with rLY6K-mFc, 240 nM; in the assay with hLY6K-mFc it was 0.0444 nM. Moreover, the “% of maximum of commercial anti-LY6K mAb on human LY6K” value in [3] is 95.2%; in the assay with rat LY6K (R&D Systems), -0.5%; with Human LY6K (R&D Systems) it was 87.2%; with human LY6E (R&D Systems) [4], 2.1%. Also, the binding result with Ly6H, with human LY6E (R&D Systems) [5] and with Ly6D was “no binding (tested: 10 µg/ml)” each time.
